# According to paper PMC6101569 (Nucleic Acids Research, 2018):
# Key:
# [1] = molecular target: H2A-H2B histone dimer from Drosophila melanogaster (Drosophila melanogaster, UniProt P84051 2-121; P02283 2-123); experiment: ITC
# [2] = molecular target: (H3-H4)2 histone tetramer from Drosophila melanogaster (Drosophila melanogaster, UniProt P02299 2-136; P84040 2-103); experiment: ITC
binder,measurement,setting,value
"APLF acidic domain (APLF^AD), Homo sapiens APLF residues 450-511, wild type (domain or fragment) DEDNDNVGQPNEYDLNDSFLDDEEEDYEPTDEDSDWEPGKEDEEKEDVEELLKEAKRFMKRK",Kd,[1],0.94 µM
same,Kd,[2],3.81 µM
